This is an account of results in patent US20240182592A1 (CHIA TAI TIANQING PHARMACEUTICAL GROUP, published 2024).

Experiment [1] concerns the target T1, human BCMA protein (human, UniProt Q02223 1-54, limits assumed).
T1 construct: also called hBCMA; Antigen BCMA
T1 sequence (looked up): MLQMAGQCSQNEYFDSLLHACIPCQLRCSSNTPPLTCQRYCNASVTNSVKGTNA
Put plainly: SPR (Biacore T200), antibody captured by anti-hIgG, human BCMA as analyte, 1:1 model. The procedure: The affinity of the test antibody for human BCMA protein was determined by Biacore T200 (GE) as follows:
(§1) The response signals were detected in real time using Biacore software, and association and dissociation curves were obtained. The buffer used in the experiment was Biacore universal buffer (137 mM NaCl, 2.7 mM KCl, 10 mM Na₂HPO₄.12H₂O, 1.8 mM KH₂PO₄, 0.05% surfactant P-20 (w/v), pH 7.4). […] The flow rate in the flow cell was at 50 μL/min, the association was performed for 240 s, the dissociation was performed for 1400 s, the regeneration was performed using 3 M MgCl₂ (GE) for 60 s, and the baseline was stable. Results were obtained by calculation according to the affinity and kinetics 1:1 binding mode in biacore evaluation software.

For experiment [2], the target named is T2, human BCMA on cells (human, UniProt Q02223 1-184).
T2 sequence (looked up): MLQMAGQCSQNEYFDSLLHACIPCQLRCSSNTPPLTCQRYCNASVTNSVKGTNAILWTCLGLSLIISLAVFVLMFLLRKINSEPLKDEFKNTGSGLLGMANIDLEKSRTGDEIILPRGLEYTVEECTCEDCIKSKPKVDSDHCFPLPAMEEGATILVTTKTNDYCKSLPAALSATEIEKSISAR
Put plainly: cell-based or functional assay.

The target of experiment [3] is T2, human BCMA on cells. Put plainly: cell-based or functional assay. This is another data set of the same source.
Experiment [4] concerns the target T1, human BCMA protein. In words: SPR (Biacore T200), antibody captured by anti-hIgG, human BCMA as analyte, 1:1 model. As to the method:
(§2) The affinity of the test antibody for human CD3e or human BCMA protein was determined by Biacore T200 (GE) as follows:
as §1, with “KH₂PO₄.” for “KH₂PO₄,”, “MgCl” for “MgCl₂”
The source holds these as a separate data set.

Experiment [5] addresses T3, human CD3e (Acro, Cat. No. CDE-H5223) (human, UniProt P07766 23-126).
T3 construct: also called human CD3e protein; hCD3e
In words: SPR (Biacore T200), antibody captured by anti-hIgG, human CD3e as analyte, 1:1 model. The procedure: as §2
as §1, with “KH₂PO₄.” for “KH₂PO₄,”, “MgCl” for “MgCl₂”

The target of experiment [6] is T2, human BCMA on cells. In words: cell-based or functional assay. The source holds these as a separate data set.
The target of experiment [7] is T2, human BCMA on cells. In words: flow cytometry, NCI-H929 cells. As to the method: (§3) NCI-H929 cells (BCMA+++), MM1S cells (BCMA++), and RPMI-8226 cells (BCMA+) in the logarithmic growth phase were taken, adjusted to a cell density of 5×10⁶-10×10⁶ cells/mL using RPMI medium (Hyclon, catalog No. SH30809.01) containing 2% FBS (fetal bovine serum), respectively, and seeded in a 96-well U-bottom cell culture plate (Costar, catalog No. 3799) at 50 μL per well. The test antibodies at different concentrations were prepared using the medium described above. […] The antibodies at different concentrations were added to the 96-well cell culture plate described above at 50 μL per well, mixed well and incubated at 4° C. for 1 h. The cells were washed with pre-cooled running buffer (MACS, catalog No. 130-091-221), and the supernatant was discarded. Pre-cooled fluorescent labeled goat anti-human IgG antibodies (Jackson, catalog No. 109-116-170) were added, and the cells were resuspended at 100 μL per well, mixed well and incubated at 4° C. for 30 min. After washing, 100 μL of pre-cooled running buffer was added to resuspend the cells. The cells were mixed well and collected while flowing on an Attune™ NxT flow cytometer, and the data was analyzed using Graphpad Prism5 software. FIGS. 7-9 and Table 11 show the binding ability of the anti-BCMA/anti-CD3 multispecific antibodies to NCI-H929 cells (BCMA+++), MM1S cells (BCMA++), and RPMI-8226 cells (BCMA+).

Experiment [8] concerns the target T2, human BCMA on cells. In words: flow cytometry, MM1S cells. The procedure: as §3
Another experiment has as its target T4, T cell surface CD3 (human, UniProt P07766 23-207).
T4 construct: whole, on cells; also called CD3^+ T cells
In words: flow cytometry, human CD3+ T cells. As to the method:
Human PBMC cells were sorted for CD3⁺ T cells using CD3 magnetic beads (Miltenyi, catalog No. 130-097-043): the cryopreserved PBMCs were thawed, and washed by centrifugation twice for counting. Running buffer (MACS, catalog No. 130-091-221) was added in a cell-to-buffer ratio of 10⁷:80 μL, CD3 beads were added in a cell-to-bead ratio of 10⁷:20 μL, and the mixture was mixed well and incubated at 4° C. for 15 min. The cells were washed with buffer in a cell-to-buffer ratio of 10⁷:1-2 mL. After centrifugation, the supernatant was discarded, and 500 μL of buffer was added to resuspend the cell pellet. The LS sorting column (Miltenyi, catalog No. 130-042-401) was placed on the MidiMACS Starting Kit (LS) magnetic rack (Miltenyi, catalog No. 130-091-051). After rinsing, the cell suspension was added and washed thrice. The LS sorting column was removed from the magnetic rack and placed on a clean centrifuge tube and 5 mL buffer was added to collect the sorted CD3⁺ T cells. After counting, the CD3⁺ T cells were adjusted to a cell density of 5×10⁶-10×10⁶ cells/mL using RPMI medium (Hyclone, catalog No. SH30809.01) containing 2% FBS (fetal bovine serum) and seeded in a 96-well U-bottom cell culture plate (Costar, catalog No. 3799) at 50 μL per well. The test antibodies at different concentrations were prepared using the medium described above. […] The antibodies at different concentrations were added to the 96-well cell culture plate described above at 50 μL per well, mixed well and incubated at 4° C. for 1 h. The cells were washed with pre-cooled running buffer (MACS, catalog No. 130-091-221), and the supernatant was discarded. Pre-cooled fluorescent labeled goat anti-human IgG antibodies (Jackson, catalog No. 109-116-170) were added, and the cells were resuspended at 100 μL per well, mixed well and incubated at 4° C. for 30 min. After washing, 100 μL of pre-cooled running buffer was added to resuspend the cells.

Numbering of substitutions follows the chain as printed. Like-named read-outs stand apart in the source and are kept apart here.

T4 sequence (P07766 23-207): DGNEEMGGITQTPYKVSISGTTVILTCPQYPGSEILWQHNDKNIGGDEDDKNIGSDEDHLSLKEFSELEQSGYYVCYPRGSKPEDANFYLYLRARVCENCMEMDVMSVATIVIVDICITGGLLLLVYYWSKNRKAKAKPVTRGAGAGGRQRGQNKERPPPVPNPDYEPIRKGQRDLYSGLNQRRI
T3 sequence (P07766 23-126 limits assumed): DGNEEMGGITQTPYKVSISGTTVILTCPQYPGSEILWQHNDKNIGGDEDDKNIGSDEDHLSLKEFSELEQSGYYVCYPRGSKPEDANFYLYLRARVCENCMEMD

B1: 1A10-V1 (antibody, human IgG1, V domains shown)
VH: QVQLVESGGGLVQPGGSLRLSCAASGYSSNVACMAWYRQAPGKGLEWVATIVADFGTTNYAASVKGRFTISQDNSKNTVYLQMNSLRAEDTAVYYCAATQRGGIDWCDEINYWGQGTLVTVSS
notes: Humanized VHH fused to human IgG1 Fc; also called humanized antibody 1A10-V1
For the molecule B1, binding with human BCMA protein [1] was characterised by a dissociation constant (Kd) of 0.337 nM.

B2: 1A10-V2 (antibody, human IgG1, V domains shown)
VH: B1 VH with G44E, L45R, A49S
notes: Humanized VHH fused to human IgG1 Fc; also called humanized antibody 1A10-V2
In turn, B2 yielded a Kd in the experiment with human BCMA protein [1] of 1.31 nM.

B3: 1A11-V1 (antibody, human IgG1, V domains shown)
VH: QVQLVESGGGLVQPGGSLRLSCAASGFTFNSACMGWFRQAPGKGREGVSRIETGYGGTVYADSVKGRFTISRDNSKNTVYLQMNSLRAEDTAVYYCAAKRSWCTPTWWHELDYNYWGQGTQVTVSS
notes: Humanized VHH fused to human IgG1 Fc; also called humanized antibody 1A11-V1
In the experiment with human BCMA protein [1], B3 displayed a Kd of 5.05 nM.

B4: 1A11-V2 (antibody, human IgG1, V domains shown)
VH: B3 VH with G44E, R87K
notes: Humanized VHH fused to human IgG1 Fc; also called humanized antibody 1A11-V2
As for B4, in the experiment with human BCMA protein [1], the affinity, expressed as Kd, was 4.37 nM.

B5: anti-BCMA/anti-CD3 bispecific control antibody Benchmark (bispecific antibody, human IgG1, kappa, L234A L235A)
heavy 1: not shown
light 1: not shown
heavy 2: not shown
light 2: EVQLLESGGGLVQPGGSLRLSCAASGFTFSTYAMNWVRQAPGKGLEWVSRIRSKYNNYATYYADSVKGRFTISRDDSKNTLYLQMNSLRAEDTAVYYCVRHGNFGNSYVSWFAYWGQGTLVTVSSASVAAPSVFIFPPSDEQLKSGTASVVCLLNNFYPREAKVQWKVDNALQSGNSQESVTEQDSKDSTYSLSSTLTLSKADYEKHKVYACEVTHQGLSSPVTKSFNRGEC
notes: Control from Celgene (US20190263920A1): two anti-BCMA Fabs and one anti-CD3 Fab; also called Celgene BM; celgene BM
For the molecule B5, in the experiment with human BCMA on cells [2], the “Lysis EC50, RPMI-8226 cells with human PBMCs (E:T 10:1, 24 h, LDH release)” value was found to be 0.271 nM and the “Maximum lysis rate, RPMI-8226 cells with human PBMCs” value was determined as 29%. In the experiment with human BCMA on cells [3], the “Lysis EC50, MM1S cells with human PBMCs (E:T 10:1, 24 h, LDH release)” value is 0.0847 nM and the “Maximum lysis rate, MM1S cells with human PBMCs” value came to 23%. In addition, the Kd with human BCMA protein [4] stood at 0.821 nM. This molecule gave a Kd in [5] of 1.6 nM. Moreover, in the experiment with human BCMA on cells [6], the “Lysis EC50, NCI-H929 cells with human PBMCs (E:T 10:1, 24 h, LDH release)” value was 0.0444 nM and the “Maximum lysis rate, NCI-H929 cells with human PBMCs” value is 41%. Besides, in the experiment with human BCMA on cells [7], the EC50 amounted to 0.821 nM and the “Top(MFI)” value came out at 166000 MFI. For the same molecule, in the experiment with human BCMA on cells [8], the EC50 worked out at 0.381 nM and the “Top(MFI)” value was 71400 MFI. In the experiment with T cell surface CD3, the EC50 amounted to 18.1 nM and the “Top(MFI)” value stood at 93500 MFI.

B6: anti-BCMA/anti-CD3 multispecific antibody PC1 (bispecific antibody, human IgG1)
chain 1: QVQLVESGGGLVQPGGSLRLSCAASGYSSNVACMAWYRQAPGKGLEWVATIVADFGTTNYAASVKGRFTISQDNSKNTVYLQMNSLRAEDTAVYYCAATQRGGIDWCDEINYWGQGTLVTVSSGGGGSGGGGSQVQLVESGGGLVQPGGSLRLSCAASGFTFNSACMGWFRQAPGKGREGVSRIETGYGGTVYADSVKGRFTISRDNSKNTVYLQMNSLRAEDTAVYYCAAKRSWCTPTWWHELDYNYWGQGTQVTVSSGEPKSSDKTHTCPPCPAPEAAGGPSVFLFPPKPKDTLMISRTPEVTCVVVDVSHEDPEVKFNWYVDGVEVHNAKTKPREEQYNSTYRVVSVLTVLHQDWLNGKEYKCKVSNKALAAPIEKTISKAKGQPREPQVCTLPPSREEMTKNQVSLSCAVKGFYPSDIAVEWESNGQPENNYKTTPPVLDSDGSFFLVSKLTVDKSRWQQGNVFSCSVMHEALHNHYTQKSLSLSPGK
chain 2: ELVVTQEPSLTTSPGGTVTLTCRSSTGAVTTSNYANWVQQKPGQAPRGLIGGTNKRAPGTPARFSGSLLGGKAALTITGVQPEDEAEYYCALWYSNLWVFGGGTKLTVLGGGGSGGGGSGGGGSEVQLVESGGGLVQPGGSLRLSCAASGFTFNTYAMNWVRQAPGKGLEWVARIRSKYNNYATYYADSVKDRFTISRDDSKNTAYLQMNNLKTEDTAMYYCVRHGNFGNSYVSWFAYWGQGTLVTVSSGEPKSSDKTHTCPPCPAPEAAGGPSVFLFPPKPKDTLMISRTPEVTCVVVDVSHEDPEVKFNWYVDGVEVHNAKTKPREEQYNSTYRVVSVLTVLHQDWLNGKEYKCKVSNKALAAPIEKTISKAKGQPREPQVYTLPPCREEMTKNQVSLWCLVKGFYPSDIAVEWESNGQPENNYKTTPPVLDSDGSFFLYSKLTVDKSRWQQGNVFSCSVMHEALHNRFTQKSLSLSPGK
notes: Trivalent; two chains; human IgG1 knobs-into-holes Fc
For the molecule B6, in the experiment with human BCMA on cells [2], the “Lysis EC50, RPMI-8226 cells with human PBMCs (E:T 10:1, 24 h, LDH release)” value worked out at 0.007 nM and the “Maximum lysis rate, RPMI-8226 cells with human PBMCs” value turned out to be 29%. Further, in the experiment with human BCMA on cells [3], the “Lysis EC50, MM1S cells with human PBMCs (E:T 10:1, 24 h, LDH release)” value is 0.0084 nM and the “Maximum lysis rate, MM1S cells with human PBMCs” value turned out to be 26%. In the experiment with human BCMA protein [4], binding was put at a Kd of 0.0396 nM. In experiment [5], this molecule yielded a Kd of 1.43 nM. In the experiment with human BCMA on cells [6], the “Lysis EC50, NCI-H929 cells with human PBMCs (E:T 10:1, 24 h, LDH release)” value was 0.0674 nM and the “Maximum lysis rate, NCI-H929 cells with human PBMCs” value was determined as 36%. Also, in the experiment with human BCMA on cells [7], the EC50 was determined as 1.26 nM and the “Top(MFI)” value amounted to 226000 MFI. Also, in the experiment with human BCMA on cells [8], the response was half-maximal at 0.35 nM (EC50) and the “Top(MFI)” value is 100000 MFI. Besides, in the experiment with T cell surface CD3, the midpoint of the response, the EC50, lay at 485 nM and the “Top(MFI)” value was found to be 92900 MFI.
